This is an account of results in patent US20220002395A1 (FAPON BIOTECH, published 2022).

Numbering of substitutions follows the chain as printed.

First the molecules themselves.
T1: Plasmodium falciparum histidine-rich protein II (HRP-II) (Plasmodium falciparum, UniProt P05227 22-332)
T1 construct: Coating antigen of all ELISAs; also called HRP-II protein; MA-HRPII Ag protein
T1 sequence (looked up): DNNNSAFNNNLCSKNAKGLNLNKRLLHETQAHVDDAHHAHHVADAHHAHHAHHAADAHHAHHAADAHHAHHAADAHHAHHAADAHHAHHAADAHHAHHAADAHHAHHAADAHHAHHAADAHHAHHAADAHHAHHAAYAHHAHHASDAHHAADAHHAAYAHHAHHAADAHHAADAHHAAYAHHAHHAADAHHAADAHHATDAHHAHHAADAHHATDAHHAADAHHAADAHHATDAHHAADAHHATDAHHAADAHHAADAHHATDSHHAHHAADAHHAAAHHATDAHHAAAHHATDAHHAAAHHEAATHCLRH

B1: Mutation 1-3 (antibody, mouse IgG2b, kappa, V domains shown)
VH: EVQLQQSGPEVVKPGASVKISCKASGYTITDYYMNWVKQSHGKGLEWIGDLNPINGGTAYQQKFRDKATLTVDKSSNTAYMELRSLTSEDSALYYCTRGAEDYWGQGTTLTVSS
VL: DVVLTQTPLSLSVTIGQPASISCKSSQSIIYSNGKIYLNWFQQRPGQSPKRLMYQLSKLEPGIPDRFSGSGSETDFTLKISRVEAEDLGVYYCLQGTYSPQTFGGGTKLEIKR
notes: Mutation 1 as framework
B2: Mutation 1-32 (antibody, mouse IgG2b, kappa, V domains shown)
VH: B1 VH with L51V, N55Q
VL: B1 VL with I29L, I30L, E60D, G96A, S99Y
notes: Mutation 1 as framework
B3: Mutation 1-31 (antibody, mouse IgG2b, kappa, V domains shown)
VH: B1 VH with Y27T, I29L, L51I, R98K
VL: B1 VL with I29L, I30L, L56I, S99T
notes: Mutation 1 as framework
B4: Mutation 1-5 (antibody, mouse IgG2b, kappa, V domains shown)
VH: B1 VH with Y27S, I29L, L51V, Q61N
VL: B1 VL with I30L, N33Q, L56V, S99T
notes: Mutation 1 as framework
B5: Mutation 1-19 (antibody, mouse IgG2b, kappa, V domains shown)
VH: B1 VH with Y27T, I29L, L51I, N55Q, Q61N
VL: B1 VL with N33Q, L56I, G96A
notes: Mutation 1 as framework
B6: Mutation 1-21 (antibody, mouse IgG2b, kappa, V domains shown)
VH: B1 VH with Y27T, I29L, N55Q, Q61N
VL: B1 VL with I29L, I30L, N33Q, S99T
notes: Mutation 1 as framework
B7: Mutation 1-29 (antibody, mouse IgG2b, kappa, V domains shown)
VH: B1 VH with L51V, N55Q, Q61N
VL: B1 VL with N33Q, L56V, S99Y
notes: Mutation 1 as framework
B8: Mutation 1-23 (antibody, mouse IgG2b, kappa, V domains shown)
VH: B1 VH with Y27T, I29L, L51V, N55Q, Q61N
VL: B1 VL with L56V, S99Y
notes: Mutation 1 as framework
B9: Mutation 1-28 (antibody, mouse IgG2b, kappa, V domains shown)
VH: B1 VH with L51I, N55Q, R98K
VL: B1 VL with L56V, E60D, G96A, S99T
notes: Mutation 1 as framework
B10: Mutation 1-25 (antibody, mouse IgG2b, kappa, V domains shown)
VH: B1 VH with L51I, N55Q, Q61N
VL: B1 VL with I29L, I30L, N33Q, L56I, S99T
notes: Mutation 1 as framework
B11: Mutation 1-6 (antibody, mouse IgG2b, kappa, V domains shown)
VH: B1 VH with N55Q, Q61N, R98K
VL: B1 VL with I29L, L56I, E60D, G96A
notes: Mutation 1 as framework
B12: Mutation 1-26 (antibody, mouse IgG2b, kappa, V domains shown)
VH: B1 VH with Y27T, I29L, L51V, N55Q, Q61N
VL: B1 VL with I29L, I30L, N33Q, E60D, S99Y
notes: Mutation 1 as framework
B13: Mutation 1-18 (antibody, mouse IgG2b, kappa, V domains shown)
VH: B1 VH with I29L, N55Q, Q61N, R98K
VL: B1 VL with I29L, I30L, N33Q, L56I, E60D, S99T
notes: Mutation 1 as framework
B14: Mutation 1-10 (antibody, mouse IgG2b, kappa, V domains shown)
VH: B1 VH with L51I, Q61N
VL: B1 VL with I29L, I30L, L56V, E60D, S99Y
notes: Mutation 1 as framework
B15: Mutation 1-13 (antibody, mouse IgG2b, kappa, V domains shown)
VH: B1 VH with Y27S, I29L, L51I, N55Q, Q61N, R98K
VL: B1 VL with I30L, N33Q, L56I, S99Y
notes: Mutation 1 as framework
B16: Mutation 1-33 (antibody, mouse IgG2b, kappa, V domains shown)
VH: B1 VH with Y27T, I29L, N55Q, Q61N, R98K
VL: B1 VL with I29L, I30L
notes: Mutation 1 as framework
B17: Mutation 1-2 (antibody, mouse IgG2b, kappa, V domains shown)
VH: B1 VH with Y27S, I29L, L51V, N55Q, R98K
VL: B1 VL with I29L, I30L, E60D, G96A, S99T
notes: Mutation 1 as framework
B18: Mutation 1-22 (antibody, mouse IgG2b, kappa, V domains shown)
VH: B1 VH with L51I, N55Q, R98K
VL: B1 VL with L56V, E60D, G96A
notes: Mutation 1 as framework
B19: Mutation 1-8 (antibody, mouse IgG2b, kappa, V domains shown)
VH: B1 VH with L51V, N55Q, Q61N, R98K
VL: B1 VL with I29L, I30L, N33Q, E60D, G96A, S99T
notes: Mutation 1 as framework
B20: Mutation 1-20 (antibody, mouse IgG2b, kappa, V domains shown)
VH: B1 VH with Y27S, L51V, N55Q, Q61N, R98K
VL: B1 VL with N33Q, E60D, S99Y
notes: Mutation 1 as framework
B21: Mutation 1-35 (antibody, mouse IgG2b, kappa, V domains shown)
VH: B1 VH with L51V, N55Q
VL: B1 VL with I29L, I30L, L56V, G96A, S99Y
notes: Mutation 1 as framework
B22: Mutation 1-14 (antibody, mouse IgG2b, kappa, V domains shown)
VH: B1 VH with I29L, L51V, Q61N, R98K
VL: B1 VL with I29L, E60D, G96A, S99T
notes: Mutation 1 as framework
B23: Mutation 1-15 (antibody, mouse IgG2b, kappa, V domains shown)
VH: B1 VH with N55Q, Q61N
VL: B1 VL with I29L, S99T
notes: Mutation 1 as framework
B24: Mutation 1-1 (antibody, mouse IgG2b, kappa, V domains shown)
VH: B1 VH with L51I, N55Q, Q61N
VL: B1 VL with N33Q, L56I, S99Y
notes: Mutation 1 as framework
B25: Mutation 1-4 (antibody, mouse IgG2b, kappa, V domains shown)
VH: B1 VH with I29L, L51I, R98K
VL: B1 VL with I30L, L56V, E60D, G96A, S99Y
notes: Mutation 1 as framework
B26: Mutation 1-11 (antibody, mouse IgG2b, kappa, V domains shown)
VH: B1 VH with L51V, Q61N, R98K
VL: B1 VL with L56V, G96A, S99T
notes: Mutation 1 as framework
B27: Mutation 1-16 (antibody, mouse IgG2b, kappa, V domains shown)
VH: B1 VH with L51I, N55Q, Q61N
VL: B1 VL with I29L, I30L, N33Q, L56V, E60D
notes: Mutation 1 as framework
B28: Mutation 1-17 (antibody, mouse IgG2b, kappa, V domains shown)
VH: B1 VH with L51V, Q61N, R98K
VL: B1 VL with I29L, I30L, N33Q, L56V, S99Y
notes: Mutation 1 as framework
B29: Mutation 1-7 (antibody, mouse IgG2b, kappa, V domains shown)
VH: B1 VH with L51I
VL: B1 VL with I29L, L56I, G96A, S99Y
notes: Mutation 1 as framework
B30: Mutation 1-27 (antibody, mouse IgG2b, kappa, V domains shown)
VH: B1 VH with Y27T, I29L, R98K
VL: B1 VL
notes: Mutation 1 as framework
B31: Mutation 1-42 (antibody, mouse IgG2b, kappa, V domains shown)
VH: B1 VH
VL: B1 VL with I30L, L56I, E60D
notes: Mutation 1 as framework
B32: Mutation 1-52 (antibody, mouse IgG2b, kappa, V domains shown)
VH: B1 VH with Y27T, I29L, L51I, N55Q
VL: B1 VL with L56V, E60D, G96A, S99Y
notes: Mutation 1 as framework
B33: Mutation 1-9 (antibody, mouse IgG2b, kappa, V domains shown)
VH: B1 VH with I29L, N55Q, Q61N
VL: B1 VL with N33Q
notes: Mutation 1 as framework
B34: Mutation 1-43 (antibody, mouse IgG2b, kappa, V domains shown)
VH: B1 VH with Y27T, I29L, L51I, R98K
VL: B1 VL with I30L, L56I
notes: Mutation 1 as framework
B35: Mutation 1-38 (antibody, mouse IgG2b, kappa, V domains shown)
VH: B1 VH with Y27T, I29L, L51V, N55Q
VL: B1 VL with I29L, I30L, E60D
notes: Mutation 1 as framework
B36: Mutation 1-34 (antibody, mouse IgG2b, kappa, V domains shown)
VH: B1 VH with Y27T, I29L, L51I
VL: B1 VL with I29L, I30L, L56V, E60D, S99T
notes: Mutation 1 as framework
B37: Mutation 1-51 (antibody, mouse IgG2b, kappa, V domains shown)
VH: B1 VH with Y27S, I29L, R98K
VL: B1 VL with I29L, I30L, S99Y
notes: Mutation 1 as framework
B38: Mutation 1-30 (antibody, mouse IgG2b, kappa, V domains shown)
VH: B1 VH with Y27S, I29L, N55Q, Q61N, R98K
VL: B1 VL with L56I, E60D, G96A
notes: Mutation 1 as framework
B39: Mutation 1-36 (antibody, mouse IgG2b, kappa, V domains shown)
VH: B1 VH with Y27T, I29L, N55Q, Q61N
VL: B1 VL with I29L, I30L, L56I, E60D
notes: Mutation 1 as framework
B40: Mutation 1-12 (antibody, mouse IgG2b, kappa, V domains shown)
VH: B1 VH with Q61N
VL: B1 VL with I30L, L56I, E60D
notes: Mutation 1 as framework
B41: Mutation 1-24 (antibody, mouse IgG2b, kappa, V domains shown)
VH: B1 VH with Y27T, I29L, N55Q, R98K
VL: B1 VL with L56I, E60D, G96A
notes: Mutation 1 as framework
B42: Mutation 1-40 (antibody, mouse IgG2b, kappa, V domains shown)
VH: B1 VH with Y27T, I29L, L51I
VL: B1 VL with I30L, E60D, S99T
notes: Mutation 1 as framework
B43: Mutation 1-44 (antibody, mouse IgG2b, kappa, V domains shown)
VH: B1 VH with L51V
VL: B1 VL with I30L, E60D, G96A
notes: Mutation 1 as framework

This test addresses T1, Plasmodium falciparum histidine-rich …. Put plainly: indirect ELISA, four antigen coating concentrations.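 Note: optical density read across an antibody dilution series at each antigen coating level, curves plotted on log scale, KD derived as reciprocal of the averaged constant.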 For orientation: ELISA stands for enzyme-linked immunosorbent assay.
Protocol: The OD values corresponding to different antibody concentrations with different coating concentrations are obtained. Under the same coating concentration, the antibody concentrations are used as an abscissa, the 00 values are used as an ordinate, and a logarithmic plot is made. […] An average value thereof is taken and a reciprocal thereof is calculated to get the affinity constant KD.
For the molecule B1, the Kd (usually the concentration at which binding is half-saturated) stood at 362 pM.

With B2, binding was put at a Kd of 244 pM.

With B3, binding was put at a Kd of 94.6 pM.

Turning to B4, the Kd amounted to 125 pM. The Kd values of the last two molecules are within 1.5-fold of each other.

On to B5, for which the Kd was 83.5 pM.

The molecule B6 registered a Kd of 82.8 pM.

B7: binding was put at a Kd of 83.5 pM.

B8: the Kd is 364 pM.

In the case of B9, the affinity, expressed as Kd, was 12 pM.

On to B10, for which binding was characterised by a dissociation constant (Kd) of 444 pM.

Molecule B11 registered a Kd of 416 pM.

B12 came in with an equilibrium dissociation constant (Kd) of 212 pM.

Take B13: binding was characterised by a dissociation constant (Kd) of 51 pM.

In turn, B14 yielded a dissociation constant (Kd) of 827 pM.

As to B15, the dissociation constant Kd worked out at 86.5 pM.

As to B16, the Kd is 169 pM. This Kd is about 2-fold higher than that of the molecule before.

B17: the affinity, expressed as Kd, was 90.3 pM.

On to B18, for which the equilibrium dissociation constant (Kd) is 81.4 pM.

The molecule B19 came in with a Kd of 198 pM.

The molecule B20 returned a dissociation constant (Kd) of 251 pM.

In the case of B21, the Kd was found to be 521 pM.

Molecule B22 had a dissociation constant Kd of 226 pM. This Kd lies about 2.3-fold lower than the previous one.

B23 registered a dissociation constant (Kd) of 245 pM.

In turn, B24 returned a Kd of 301 pM. This Kd and that of the molecule before are within 1.5-fold of each other.

In turn, B25 yielded a Kd of 465 pM. This Kd lies about 1.5-fold higher than the previous one.

For the molecule B26, the affinity, expressed as Kd, was 21.3 pM.

The molecule B27 showed a dissociation constant Kd of 502 pM. Against the preceding molecule, the Kd is about 24-fold higher.

Take B28: binding was put at a Kd of 82.4 pM. This Kd is about 6.1-fold lower than that of the molecule before.

B29 came in with a Kd of 329 pM.

The molecule B30 yielded an equilibrium dissociation constant (Kd) of 165 pM.

Molecule B31 yielded a Kd of 64.3 pM. Compared with the last molecule, the Kd is about 2.6-fold lower.

B32 registered a Kd of 182 pM.

B33 came in with a dissociation constant (Kd) of 64.5 pM.

Turning to B34, the affinity, expressed as Kd, was 124 pM.

In the case of B35, the equilibrium dissociation constant (Kd) was 88.3 pM.

B36 returned a Kd of 184 pM.

B37 displayed a Kd of 179 pM.

For B38, the Kd stood at 233 pM. The Kd values of the last two molecules are within 1.5-fold of each other.

For the molecule B39, binding was put at a Kd of 473 pM.

Molecule B40 showed a Kd of 126 pM. This Kd lies about 3.8-fold lower than the previous one.

In the case of B41, the Kd is 127 pM.

B42 came in with a Kd of 83 pM.

B43 gave an equilibrium dissociation constant (Kd) of 105 pM.
